From article PMC4230594 (Molecular Biology of the Cell, 2014)

Target: T1, HA-Rlf (mouse, UniProt Q61193 1-778)
T1 sequence (looked up): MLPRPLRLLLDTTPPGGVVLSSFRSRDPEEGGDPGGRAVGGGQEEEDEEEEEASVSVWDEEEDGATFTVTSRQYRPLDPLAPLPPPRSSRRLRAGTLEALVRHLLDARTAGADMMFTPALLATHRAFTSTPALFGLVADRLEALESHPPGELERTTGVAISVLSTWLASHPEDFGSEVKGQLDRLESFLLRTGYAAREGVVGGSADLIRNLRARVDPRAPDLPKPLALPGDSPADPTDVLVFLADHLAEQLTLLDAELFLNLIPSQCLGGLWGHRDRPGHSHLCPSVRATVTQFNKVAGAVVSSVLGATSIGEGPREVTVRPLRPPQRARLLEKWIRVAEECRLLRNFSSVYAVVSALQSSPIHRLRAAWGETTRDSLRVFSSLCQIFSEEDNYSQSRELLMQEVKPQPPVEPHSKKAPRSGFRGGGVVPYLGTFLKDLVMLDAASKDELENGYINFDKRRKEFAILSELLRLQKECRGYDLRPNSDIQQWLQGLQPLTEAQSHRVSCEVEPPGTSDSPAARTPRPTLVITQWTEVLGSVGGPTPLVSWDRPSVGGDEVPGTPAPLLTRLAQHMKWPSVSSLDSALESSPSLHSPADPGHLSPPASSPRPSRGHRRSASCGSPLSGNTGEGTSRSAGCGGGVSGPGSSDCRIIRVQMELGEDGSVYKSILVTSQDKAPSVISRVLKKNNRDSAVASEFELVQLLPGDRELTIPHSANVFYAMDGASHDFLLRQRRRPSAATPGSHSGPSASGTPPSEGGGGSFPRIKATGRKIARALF
Experiment: co-IP

B1: Myc-Rab10 (QL) (natural protein, UniProt P61026 1-200, looked up)
chain: MAKKTYDLLFKLLLIGDSGVGKTCVLFRFSDDAFNTTFISTIGIDFKIKTVELQGKKIKLQIWDTAGLERFHTITTSYYRGAMGIMLVYDITNGKSFENISKWLRNIDEHANEDVERMLLGNKCDMDDKRVVPKGKGEQIAREHGIRFFETSAKANINIEKAFLTLAEDILRKTPVKEPNSENVDISSGGGVTGWKSKCC
fold binding against wild-type Rab10: 2 fold
